According to patent US20020115613A1, “Treatment of prostate cancer” (priority 2001, published 2002):

What was measured:
Format in all cases: cell-based
PC3AR cells = test: Western blotting of death receptors, caspases, Bid, NFκB, XIAP
Method: (§1) Prostate cancer cell lines, PC3Neo and PC3AR were provided by Dr. K. Burnstein, University of Miami School of Medicine, Miami, Fla. PC3AR cells are a clonal cell line derived by stable transfection of PC3 with a full-length human AR cDNA (Dai, J. L., et al., Steroids, 61, 531-539, 1996). PC3Neo cells were stably transfected with neomycin vector alone. Cells were grown in RPMI 1640 with 5% FBS (Hyclone, Logan, Utah), 100 units/ml penicillin, 100 μg/ml streptomycin, 0.25 μg/ml fungizone and G418 (350 μg/ml) to select for neomycin-resistant cells. In experiments using antiandrogens, cells were maintained in 5% DCC stripped serum for at least 48 hr before treatment with hydroxyflutamide (Sigma Chemical Co., St. Louis, Mo.). The medium and all the drugs were replaced every two days. Cells were treated with 200 ng/ml, 400 ng/ml or 600 ng/ml of TRAIL (Biomol Research Laboratories, Inc, Plymouth Meeting, Pa.) for 2, 4, 6, 8, 16 and 20 hr. Cells were treated with 5 μM hydroxyflutamide for 5 days before the commencement of treatment with 400 ng/ml TRAIL.
(§2) Cells were harvested by trypsinization, washed in 1×PBS and cell pellets resuspended in lysis buffer (100 mM Tris-HCl pH 8.0, 0.1% Triton X 100 and protease inhibitor cocktail from Roche Diagnostic Corporation, Indianapolis, Ind.). Cells were incubated over ice for 30 min and centrifuged at 10,000 g at 4° C. for 10 min. The supernatant was collected and the protein concentration estimated using Bio-Rad protein reagent (Bio-Rad Laboratories, Hercules, Calif.).
(§3) Proteins (50 μg, unless stated otherwise) were separated on NuPAGE 10% Bis-Tris gels (Novex pre-cast mini gels, InVitrogen, Carlsbad, Calif.) at 100 volts for 1 hour in the presence of 1×MES-SDS running buffer (InVitrogen, Carlsbad, Calif.). Separated proteins were transferred to (PVDF) membranes (Bio-Rad Laboratories, Hercules, Calif.) at 42 volts for 2.5 hr using a Novex XCell II blotting apparatus in MES transfer buffer in the presence of NuPAGE antioxidant. Transfer of the proteins to the polyvinylidene difluoride (PVDF) membrane was confirmed by staining with Ponceau S (Sigma, St. Louis, Mo.). The blots were blocked in 5% non-fat dry milk in TBS, washed twice for 10 min each with TBS containing 0.1% Tween-20 and incubated for 2 hr at RT with primary antibody diluted in TBS containing 0.5% milk.
(§4) The following antibodies were used in the immunoblots: DR4, DR5 and cytochrome c (Imgenex, San Diego, Calif.), BID (BioSource International, Camarillo, Calif.), caspases-8, -9, and Akt (Cell Signaling Technology, Beverely, Mass.), caspase-3 (BD Pharmingen, San Diego, Calif.) Iκβ and XIAP (Cell Signaling Technology, Beverly, Mass.), cFLIP (StressGen Biotechnology Corp, Victoria, Canada), actin (Sigma Chemical Co., St. Louis, Mo.) and Cox II (Molecular Probes, Eugene, Oreg.). Immunoreactive bands were visualized using ECL detection system (Amersham, Pharmacia Biotech, Arlington Heights, Ill.) and signals were developed after exposure to X-ray film (X-Omat films, Eastman Kodak Company, Rochester, N.Y.).
(§5) For separation of mitochondrial and cytosolic fractions, cells were trypsinized, centrifuged at 600 g for 10 min at 4° C., washed twice in ice-cold PBS and re-suspended in buffer A (20 mM HEPES-KOH, pH 7.2, 10 mM KCl, 1.5 mM MgC12, 1 mM sodium-EDTA, 1 mM sodium-EGTA, 250 mM sucrose and protease inhibitor cocktail). Cells were homogenized on ice with a glass Dounce homogenizer (30 strokes) and were centrifuged at 750 g for 5 min at 4° C. The supernatant was centrifuged for 15 min at 10,000 g at 4° C. to pellet mitochondria, which was washed and resuspended in lysis buffer. The supernatant was centrifuged at 100,000 g for 60 min at 4° C. and S-100 cytosol was collected. […]

PC3Neo cells [1] = test: as above
Method: as §1, §2, §3, §4, §5

PC3Neo cells [2] = test: Induction of apoptosis / cell survival (FIG. 1E, 6A)
Method: as §1
Two methods were used to measure induction of apoptosis by drug treatment: the MTT assay and the Apoptosense assay. The MTT assay measures mitochondrial enzyme activity and is indicative of the number of surviving cells. The Apoptosense assay is an ELISA, which utilizes M30 antibody to recognize the C-terminal domain (amino acids 387-396) of cytokeratin 18 that is exposed in apoptotic cells after cleavage by caspases.
Cells were seeded in 96-well plates (6000 cells/well) and treatment was started 24 hr after seeding the cells. After completion of the treatment, cells were incubated at 37° C. with the MTT reagent for 3 hr and processed according to manufacturers instructions (Promega Corporation, Madison, Wis.). Color development was measured at 490 nm on a Spectra MAX 340 microplate reader (Molecular Devices, Menlo Park, Calif.).
To examine the role of NFκB in altered response to TRAIL, its function was blocked by over expressing mutated IκB protein (Kanegae, Y., et al., Nature 392, 611-614, 1998). […]

[3] = 400 ng/ml TRAIL, by 2 hr, FIG. 2C

B1: Tumor necrosis factor α—Related Apoptosis Inducing Ligand (protein, UniProt P50591 1-281, looked up)
Tumor necrosis factor ligand …: MAMMEVQGGPSLGQTCVLIVIFTVLLQSLCVAVTYVYFTNELKQMQDKYSKSGIACFLKEDDSYWDPNDEESMNSPCWQVKWQLRQLVRKMILRTSEETISTVQEKQQNISPLVRERGPQRVAAHITGTRGRSNTLSSPNSKNEKALGRKINSWESSRSGHSFLSNLHLRNGELVIHEKGFYYIYSQTYFRFQEEIKENTKNDKQMVQYIYKYTSYPDPILLMKSARNSCWSKDAEYGLYSIYQGGIFELKENDRIFVSVTNEHLIDMDHEASFFGAFLVG
notes: 281 amino acid type II transmembrane protein of the tumor necrosis factor α family; purchased from Biomol
PC3AR cells; [3]
  increase in expression of DR5: ~5 fold
PC3AR cells; 400 ng/ml TRAIL, by 16 hr, FIG. 2C
  increase in expression of DR5 (peak): ~8 fold
PC3AR cells; TRAIL treatment
  DcR2 expression: did not significantly alter DcR2 expression
PC3AR cells; TRAIL-treated
  DR4 levels: increased
PC3AR cells; by 4 hr, lasted until 16 hr
  cleaved caspase-9: significant levels of cleaved caspase-9 were detected
PC3AR cells; mitochondrial fraction, not shown
  tBid in mitochondria: translocated into mitochondria within 2 hours
PC3AR cells; not shown
  XIAP levels: did not alter XIAP levels significantly
  cleaved caspase-3 (p17): present in both cell lines as early as 2 hr
  expression of NFκB: increased the expression of NFκB levels
  mature p12 caspase-3 product: noted only in PC3AR
  tBid expression: detected up to 8 hr of treatment
PC3AR cells; within 2 hr, not shown
  cleavage of procaspase-8: induced cleavage of procaspase-8
PC3Neo cells [1]
  activated caspase-9: not detected
PC3Neo cells [1]; [3]
  increase in expression of DR5: ~2 fold
PC3Neo cells [1]; TRAIL treatment
  DcR2 expression: did not significantly alter DcR2 expression
PC3Neo cells [1]; TRAIL-treated
  DR4 levels: did not show significant changes
PC3Neo cells [1]; by 4 hr of TRAIL treatment, not shown
  tBid expression: little tBid was present
PC3Neo cells [1]; mitochondrial fraction, highest level by 2 hr, not shown
  tBid in mitochondria: significantly lower than that seen in PC3AR cells
PC3Neo cells [1]; not shown
  XIAP levels: did not alter XIAP levels significantly
  cleaved caspase-3 (p17): present in both cell lines as early as 2 hr
  expression of NFκB: increased the expression of NFκB levels
  mature p12 caspase-3 product: noted only in PC3AR
PC3Neo cells [1]; within 2 hr, not shown
  cleavage of procaspase-8: induced cleavage of procaspase-8
PC3Neo cells [2]; 200 ng/ml TRAIL
  apoptotic response at 200 ng/ml: lower response
PC3Neo cells [2]; 400 ng/ml TRAIL, by 20 hr, FIG. 1E
  death of cells (apoptosis): ~18%
PC3Neo cells [2]; 600 ng/ml TRAIL
  apoptosis at higher dose: did not significantly increase apoptosis
